Assay results published in the supplement of paper PMC10567573.

B1: ZNF8 (parent)
chain: RIHTGERPYMCKECGKAFSQNSSL
B2: CD69 (parent)
chain: FVAENSSLHPESGQENDATSPHFS

Variants of: B1
Assay: protein stability index of a GFP-peptide fusion (GPS, HEK-293T) (PSI 1-6); higher = more stable
Details: c terminus: a fixed tail appended
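Further: lentivirally expressed fusions sorted by FACS into six bins by GFP to DsRed ratio, PSI derived from sequencing read proportions per bin multiplied by bin number.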

In order of falling protein stability index:
1. R7E  3.85
2. F18D  3.84
3. F18H  3.59
4. C14K  3.58
5. I2Q  3.57
6. L24D  3.56
7. C14D  3.48
8. C11E  3.42
9. G5E  3.37
10. G15A  3.37
11. R7D  3.36
12. Y9D  3.29
13. F18R  3.25
14. R1S  3.19
15. L24P  3.18
16. C14N  3.15
17. I2N  3.13
18. H3G  3.12
19. N21D  3.08
20. C14E  3.07
21. G15T  3.05
22. R1M  3.04
23. P8M  2.98
24. Q20K  2.94
25. A17S  2.94
26. I2R  2.94
27. F18A  2.93
28. P8R  2.85
29. M10D  2.84
30. C14T  2.81
31. H3N  2.81
32. T4S  2.81
33. S19H  2.8
34. R1I  2.77
35. N21K  2.75
36. P8A  2.75
37. I2S  2.75
38. M10L  2.74
39. K16T  2.73
40. C11A  2.73
41. C11V  2.72
42. Q20N  2.72
43. E6M  2.7
44. M10G  2.7
45. N21T  2.66
46. Q20A  2.65
47. M10A  2.64
48. P8Y  2.62
49. N21S  2.59
50. R7S  2.53
51. K16D  2.52
52. C14R  2.51
53. G5K  2.5
54. H3M  2.49
55. A17L  2.47
56. K12S  2.46
57. H3K  2.46
58. F18L  2.44
59. P8S  2.44
60. I2M  2.44
61. Q20D  2.37
62. R7V  2.37
63. E6K  2.35
64. G15N  2.33
65. M10F  2.31
66. E13L  2.3
67. C11Y  2.28
68. E6D  2.28
69. R1W  2.27
70. S23A  2.26
71. T4A  2.21
72. C14Y  2.2
73. Q20S  2.2
74. K12I  2.17
75. G5R  2.13
76. C14W  2.12
77. K16S  2.05
78. Y9R  2.02
79. K12R  1.99
80. E6V  1.98
81. T4W  1.89
82. E13R  1.87
83. N21L  1.86
84. G5I  1.83
85. K16C  1.82
86. K12F  1.8
87. K16N  1.8
88. M10K  1.75
89. E6R  1.71
90. S23R  1.66
91. E13F  1.59
92. K12W  1.51
93. N21V  1.4

Variants of: B2
Assay: as above
Details: c terminus: a fixed tail appended

In order of falling protein stability index:
1. F23D  4.53
2. F23E  4.17
3. F23S  4.12
4. F23K  4.07
5. T19E  4.03
6. S20D  4.01
7. P21E  3.97
8. Q14D  3.93
9. S24D  3.9
10. A18E  3.87
11. H22E  3.82
12. F23N  3.8
13. F23Q  3.8
14. H22D  3.79
15. D17A  3.79
16. H22Q  3.76
17. T19D  3.75
18. S20E  3.75
19. S24E  3.75
20. F23T  3.61
21. N16D  3.61
22. P21D  3.6
23. F23V  3.59
24. G13T  3.59
25. F23G  3.58
26. F23M  3.56
27. F23H  3.56
28. F23L  3.55
29. F23A  3.55
30. S24A  3.55
31. S24H  3.55
32. H22V  3.54
33. A18Q  3.53
34. Q14E  3.51
35. Q14H  3.47
36. F23I  3.46
37. S12V  3.42
38. G13E  3.41
39. G13D  3.4
40. S12P  3.39
41. G13M  3.38
42. F23P  3.37
43. N16Q  3.37
44. T19A  3.35
45. H22G  3.33
46. G13N  3.33
47. G13P  3.32
48. G13S  3.31
49. N16K  3.29
50. Q14M  3.28
51. S24T  3.27
52. P21K  3.25
53. T19G  3.24
54. H22K  3.24
55. G13K  3.24
56. A18D  3.22
57. A18V  3.22
58. F23R  3.22
59. H22N  3.21
60. H22A  3.21
61. G13V  3.21
62. Q14V  3.2
63. T19H  3.19
64. A18P  3.19
65. F23C  3.19
66. N16S  3.19
67. H22P  3.19
68. H22R  3.18
69. S20G  3.17
70. T19I  3.16
71. T19Q  3.16
72. S20A  3.16
73. S20Q  3.15
74. P21Q  3.15
75. S12T  3.14
76. Q14K  3.13
77. N16V  3.13
78. S24G  3.13
79. S20T  3.12
80. H22T  3.11
81. F23Y  3.09
82. G13Q  3.09
83. A18N  3.07
84. E15D  3.06
85. Q14A  3.06
86. G13Y  3.06
87. E15Q  3.05
88. N16E  3.05
89. S12N  3.05
90. Q14I  3.04
91. P21G  3.04
92. S24L  3.04
93. A18G  3.03
94. S20L  3.02
95. S20I  3.02
96. N16I  3.01
97. N16H  3
98. Q14T  2.99
99. P21S  2.98
100. D17H  2.97
101. Q14C  2.95
102. D17N  2.95
103. T19R  2.92
104. S24N  2.92
105. A18S  2.91
106. P21F  2.91
107. S24K  2.91
108. T19N  2.9
109. A18C  2.9
110. S12G  2.9
111. P21W  2.9
112. G13C  2.89
113. E15A  2.88
114. N16G  2.88
115. S12Q  2.88
116. Q14L  2.87
117. Q14N  2.87
118. S12M  2.87
119. H22S  2.86
120. S12I  2.86
121. P21T  2.86
122. A18L  2.85
123. T19S  2.84
124. T19P  2.84
125. Q14F  2.84
126. E15M  2.83
127. D17E  2.82
128. N16L  2.81
129. N16F  2.81
130. N16T  2.8
131. A18T  2.79
132. E15T  2.78
133. S20M  2.78
134. S20C  2.78
135. S24Q  2.78
136. T19V  2.77
137. S24V  2.77
138. E15H  2.76
139. E15K  2.76
140. Q14R  2.76
141. D17P  2.76
142. T19W  2.75
143. T19M  2.73
144. A18M  2.73
145. N16C  2.73
146. D17S  2.73
147. N16Y  2.72
148. H22W  2.72
149. A18I  2.71
150. S20K  2.71
151. S20N  2.71
152. H22M  2.71
153. G13F  2.69
154. G13A  2.69
155. D17I  2.69
156. S20V  2.68
157. A18F  2.67
158. E15V  2.67
159. Q14P  2.66
160. N16R  2.66
161. S12K  2.66
162. H22C  2.65
163. D17G  2.65
164. P21I  2.65
165. Q14S  2.64
166. H22L  2.64
167. S12H  2.64
168. P21C  2.64
169. P21A  2.62
170. P21Y  2.62
171. A18K  2.61
172. G13I  2.61
173. T19L  2.6
174. E15N  2.6
175. N16P  2.6
176. P21N  2.6
177. E15G  2.59
178. Q14G  2.58
179. A18R  2.57
180. E15C  2.57
181. S24P  2.57
182. N16M  2.56
183. D17L  2.56
184. P21M  2.56
185. P21R  2.56
186. S20P  2.54
187. D17T  2.54
188. P21V  2.52
189. E15I  2.51
190. N16A  2.51
191. T19C  2.5
192. S20H  2.5
193. S24C  2.5
194. G13R  2.49
195. G13L  2.49
196. Q14W  2.48
197. G13H  2.46
198. D17M  2.46
199. S12L  2.46
200. P21H  2.46
201. A18H  2.45
202. S20R  2.45
203. H22I  2.45
204. Q14Y  2.4
205. S12Y  2.39
206. S12R  2.38
207. S24Y  2.38
208. T19K  2.37
209. D17V  2.36
210. P21L  2.33
211. E15P  2.32
212. S20F  2.32
213. D17Q  2.32
214. D17C  2.31
215. S24F  2.27
216. A18W  2.24
217. D17R  2.24
218. A18Y  2.23
219. D17K  2.2
220. E15R  2.19
221. S24I  2.19
222. D17Y  2.18
223. E15L  2.12
224. E15S  2.11
225. S20Y  2.11
226. N16W  2.11
227. S20W  2.09
228. S24M  2.09
229. E15Y  2.08
230. D17F  2.05
231. T19Y  2.02
232. F23W  2.02
233. T19F  1.97
234. G13W  1.97
235. E15W  1.95
236. D17W  1.92
237. E15F  1.91
238. S12W  1.83
239. S24R  1.77
240. H22Y  1.72
241. H22F  1.66
